Experimental findings from the supplement of paper PMC10126150 are described below.

± gives the standard deviation of the averaged measurements.
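Also: ATP exposure 15 min at 22 °C before imaging.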

In the series the test system is ATP. Description: switch fluorescence ratio, 500 uM ATP over buffer (Cy3 cluster intensity, sum of 5 cycles each) (fold (ratio)); higher = stronger signal-on switching upon ATP binding; sequences stand for … in TCGTCGGCAGCGTCAGATGTGTATAAGAGACAGTTTTTTTTTTTTTTTTTTTTTTTTT…TC. To be noted: aptamer strand: ATP DNA aptamer (quencher-CACCTGGGGGAGTATTGCGGAGGAAGG + anchor), 100 nM annealed; ATP concentration: 500 uM. The method in brief:
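Five buffer/ATP imaging cycles were run on Cy3-labelled switching-strand clusters on a modified Illumina MiSeq flow-cell, with NaOH stripping and re-annealing between cycles. In each cycle, clusters annealed to 100 nM quencher-labelled ATP aptamer were imaged in selection buffer, then after 15 min with 500 uM ATP at 22 °C. Per cluster, the fluorescence ratio is summed target-cycle over summed buffer-cycle Cy3 intensity, averaged per switch-domain sequence. Only clusters within 100-1000 RFU were kept.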
As to GCAGCTGGCA, the switch fluorescence ratio came to 0.984 ± 0.017.

AAGGGGGATT: the switch fluorescence ratio is 1.01 ± 0.044. Consider GATCGTAATT, for which the switch fluorescence ratio is 1.06 ± 0.0044. With GCTGGGGGAT the figure was 1 ± 0.044. Take GGGGACGTCA: the switch fluorescence ratio was found to be 0.998 ± 0.012. With CGGATTTTCA the figure was 0.9999 ± 0.0067; with ATCCTTGGTC, 1.01 ± 0.023; with AAATATGTGG, 0.989 ± 0.02. With TGGGTATCTT the figure was 1.03 ± 0.061; with ATTCGGTTAT, 1.01 ± 0.045. The same measure for AGGGGGCGCG: 1.01 ± 0.048; for AAGGACCCCT: 1.06 ± 0.026; for TTTTGGCGGT: 0.971 ± 0.055. Turning to GCTAAGGGGC, the switch fluorescence ratio was 1.03 ± 0.018. The same measure for GAGTGATGTT: 0.979 ± 0.012; for TAAGATCTGA: 1.02 ± 0.051. TGATTATTGG: the switch fluorescence ratio was determined as 1 ± 0.061.

In the case of TGGGGGCGCG, the switch fluorescence ratio turned out to be 0.984 ± 0.042.

For AAATTTTAAT, the switch fluorescence ratio is 0.979 ± 0.04. Take ATTGACGTGT: the switch fluorescence ratio came to 1 ± 0.035. With GGCGGAGTAT the figure was 1 ± 0.017; with TTACTTTTGT, 1.021 ± 0.0039; with TTAGGAATTT, 1.05 ± 0.075. Take TCATTTAAGG: the switch fluorescence ratio was found to be 0.987 ± 0.02.

As for TCCAATCTCT, the switch fluorescence ratio is 1.06 ± 0.02. Turning to TAATGCGTTT, the switch fluorescence ratio amounted to 0.98 ± 0.0039. The same measure for TGGATTAGGC: 1.01 ± 0.048; for TACGTGGTAG: 1.06 ± 0.05; for GGGTATAGTC: 1.02 ± 0.074. As for TGGGGGAATT, the switch fluorescence ratio came to 1 ± 0.029. For TAAAATAGAG, the switch fluorescence ratio turned out to be 1 ± 0.035. In the case of CTCTTTTGGT, the switch fluorescence ratio is 0.975 ± 0.02. Consider AAAGGTCTGA, for which the switch fluorescence ratio stood at 0.98 ± 0.0099. With CATCGAGCAA the figure was 3.77 ± 3.5. The same measure for GATAATAATT: 0.9969 ± 0.0091; for GCCCGCCACA: 1.06 ± 0.041; for AAATGGATCA: 1.024 ± 0.0029.

Regarding ATGGGACAGT, the switch fluorescence ratio was found to be 0.988 ± 0.05. Take ATGGGATGCG: the switch fluorescence ratio worked out at 0.981 ± 0.016. With GGGTTGAACG the figure was 0.967 ± 0.03. With TTAAGCTCGC the figure was 0.986 ± 0.045; with GATTCGGTTG, 0.9897 ± 0.0011; with CGGTAGACCT, 1.105 ± 0.0037. With TTCCGGCGCT the figure was 3.42 ± 1.1. On to CACATAGTTT, for which the switch fluorescence ratio came to 1.03 ± 0.023.

Consider TTACCTTTGT, for which the switch fluorescence ratio was determined as 1.05 ± 0.024. The same measure for TTAATTTTCC: 1.46 ± 0.49; for AAGCTAATTT: 1.01 ± 0.011. On to GGGGAAAACA, for which the switch fluorescence ratio was found to be 1 ± 0.014. With TTTCGGAAGG the figure was 0.988 ± 0.025; with CGAGCTTATA, 1.38 ± 0.032. For AACGGTCACA, the switch fluorescence ratio is 1.16 ± 0.021. With AGGTTTTCAG the figure was 0.983 ± 0.045; with CATATGTGCG, 0.992 ± 0.023; with CATTGTATCG, 1.01 ± 0.011.

Take GGGAGTAGAC: the switch fluorescence ratio is 1.02 ± 0.045.

With CATGGTTGGT, the switch fluorescence ratio amounted to 0.969 ± 0.025. With TGAGTGAGTG the figure was 0.9933 ± 0.0015; with GAGGTACGCG, 1.026 ± 0.0062; with TTGGCCGGAT, 0.9532 ± 0.0042.

On to TTTTAGGTTC, for which the switch fluorescence ratio came to 1.01 ± 0.018.

For the sequence CCAGGTATTT, the switch fluorescence ratio turned out to be 1.1 ± 0.016. The same measure for GGTAGAGGTT: 0.985 ± 0.019; for ATAAAGGTTG: 0.993 ± 0.016; for GGGGGGTTAT: 0.993 ± 0.026. Take AGGATGAAAG: the switch fluorescence ratio stood at 0.9896 ± 0.0034.

Regarding GTTGCTGGGG, the switch fluorescence ratio was 0.998 ± 0.011. Regarding CCCGGGATAT, the switch fluorescence ratio came out at 1.06 ± 0.056. With ATAGCCGGAC the figure was 1.081 ± 0.008. With AGTTTGCTAG the figure was 0.994 ± 0.034; with TGTGTAAGGC, 1.03 ± 0.038. In the case of CACATTTTCA, the switch fluorescence ratio is 1.01 ± 0.027. With TGGTGGTTCG the figure was 0.975 ± 0.061. Take ATGTGAGTTA: the switch fluorescence ratio stood at 0.951 ± 0.039.

In the case of AGGGGGTGTG, the switch fluorescence ratio was 0.989 ± 0.043. The same measure for TGGCACGACA: 1.09 ± 0.042; for AGGTGGTGAC: 0.979 ± 0.018; for CGAAGATGGG: 0.981 ± 0.03. The same measure for GATAATATGG: 0.9814 ± 0.0094; for TTGAGTGTGG: 0.998 ± 0.03.

In the case of TAGACTGGGG, the switch fluorescence ratio worked out at 0.966 ± 0.11. With TTAACACTCC the figure was 1.2 ± 0.02. For the sequence ATTAAAGTTA, the switch fluorescence ratio came out at 1.01 ± 0.013. As for AGCTAGGGTC, the switch fluorescence ratio worked out at 1.05 ± 0.049. For TGGCCGTCAT, the switch fluorescence ratio turned out to be 0.98 ± 0.032.

GGGTTTGAAT: the switch fluorescence ratio was 0.978 ± 0.032. With ATAATGGGGT the figure was 1.026 ± 0.0044.

For the sequence ATTGTGTCTA, the switch fluorescence ratio is 0.9935 ± 0.007.

Turning to TTCAGTCCGG, the switch fluorescence ratio was 1.01 ± 0.026. With GGGTTCGACA the figure was 0.998 ± 0.019. Regarding GCTATGGTTA, the switch fluorescence ratio stood at 1 ± 0.013.

As to GATTTGCCGA, the switch fluorescence ratio amounted to 1.034 ± 0.005. With GCGGCGGGTT the figure was 1.04 ± 0.064. The same measure for TGAGCTGAGG: 0.957 ± 0.049; for GCTGCAGGGG: 1.144 ± 0.0063. With ATGTATTAAG the figure was 0.98 ± 0.015; with CCCATGGACT, 1.034 ± 0.0088; with ATAGTTTTCG, 1 ± 0.034. Take CTGGGTAGGC: the switch fluorescence ratio was 0.992 ± 0.018. Regarding ATTGTGTGGG, the switch fluorescence ratio was determined as 0.999 ± 0.036.

GGTTGTTCTG: the switch fluorescence ratio turned out to be 0.997 ± 0.015. TGCTGCTACC: the switch fluorescence ratio stood at 1.07 ± 0.037. Take AGGTAGAGAG: the switch fluorescence ratio is 0.992 ± 0.038.

Consider GTGTGTGGGC, for which the switch fluorescence ratio came out at 1.04 ± 0.061.

With TTTTTGGATC, the switch fluorescence ratio is 1 ± 0.025.

Take TGGTTTAGAG: the switch fluorescence ratio stood at 0.979 ± 0.024. With AGTTTGGACA the figure was 0.997 ± 0.015; with TTCGAAACGA, 1.1 ± 0.14; with GATCTGAACT, 1 ± 0.059. The same measure for CGTATACTGA: 1.01 ± 0.055. With GGTATTAAGT the figure was 1 ± 0.011; with GACTGTTACA, 1.2 ± 0.017. Turning to TCTTGTAACT, the switch fluorescence ratio is 1.01 ± 0.017. The same measure for TTTGGTGATA: 0.943 ± 0.01. TCCGCTTGAG: the switch fluorescence ratio was 1.36 ± 0.016. For the sequence TAAACGGGCG, the switch fluorescence ratio was 0.983 ± 0.019. Consider GACACTCAGG, for which the switch fluorescence ratio was determined as 1.083 ± 0.0013. Take TAGGTGGGCT: the switch fluorescence ratio is 1.011 ± 0.0064.

AATGGGGAAT: the switch fluorescence ratio was determined as 1.25 ± 0.4. Consider GACAGCTTGG, for which the switch fluorescence ratio came to 1.0064 ± 9.5e-05.
